The values that follow are results of earlier work, collected in publication PMC5114699.

What is called pKa is the negative logarithm of the acid dissociation constant.

The data set has as its target Glu148 (UniProt position 148, MVLGREGPTVQ).

With “ClC-ec1 Cl-/H+ antiporter (H(+)/Cl(-) exchange transporter ClcA) (Escherichia coli)”, the pKa is 6.2.
